Measured values as given in the nanobody polyreactivity screen of Harvey et al. (2022).

experiment: yeast display, Sf9 membrane polyspecificity reagent, FACS + sequencing; frameworks hold sequencing errors
In short: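 Polyreactivity labels are assigned by the sorting gate from which each nanobody was recovered. The gates were low and high (top ~1%), set on anti-HA fluorescence for expression and streptavidin fluorescence for reagent binding. Before sorting, galactose-induced (36–48 hours) yeast display cells were stained for 1 hour at 4 °C with 10% biotinylated, detergent-solubilized Sf9 membrane reagent.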

Question: With “QVQLVESGGGLVQAGGSLRLSCAASGSTFYGYAMGWYRQAPGKERELVAAITRSGGSTYYADSVKGRFTISRDNAKNTVYLQMNSLKPEDTAVYYCAAEFRYSRVYGYNYWGQGSQVTVSS” as the sequence, how does the “polyreactivity (PSR sort gate)” value read?
Answer: high polyreactivity

Question: With “QVQLVESGGGLVQAGGSLRLSCAASGSTFYGYAMGWYRQAPGKERELVAVISWRGTSTYYADSVKGRFTISRDNAKNTVYLQMNSLKPEDTAVYYCAARGLWPYDYWGQGTQVTVSS” as the sequence, how does the “polyreactivity (PSR sort gate)” value read?
Answer: low polyreactivity

Question: For “QVQLVESGGGLVQAGGSLRLSCAASGSTFYGYGMGWYRQAPGKERELVAAITGSGDTTYYADSVKGRFTISRDNAKNTVYLQMNSLKPEDTAVYYCAADLTVRYDYWGQGTQVTVSS”, which “polyreactivity (PSR sort gate)” value is on record?
Answer: low polyreactivity

Question: Which “polyreactivity (PSR sort gate)” value does the source give for “QVQLVESGGGLVQAGGSLRLSCAASGSTFYGYGMGWYRQAPGKEWELVAAITGSGDTTYYADSVKGRFTISRDNAKNTVYLQMNSLKPEDTAVYYCNARWHAEYDYWGQGTQVTVSS” here?
Answer: low polyreactivity

Question: Which “polyreactivity (PSR sort gate)” value does the source give for “QVQLVESGGGLVQAGGSLRLSCAASGSTFYGYGMGWYSQAPGKERELVAAITKSVGSTYYADSVNGRFTISRDNAKNTVYLQMNSLKPEDTAVYYCARSTRYRRGPSQYAGTYDYWGQGTQVTVSS” here?
Answer: low polyreactivity

Question: With “QVQLVESGGGLVQAGGSLRLSCAASGSTFYGYTMGWSRQAPGKERELVAVITSGGSTYYADSVKGRFTISRDNAKNTVYLQMNSLKPDDTAVYYCAQRYGYPAYGRPWRIGRTYDYWGQGTQVTVSS” as the sequence, how does the “polyreactivity (PSR sort gate)” value read?
Answer: low polyreactivity

Question: Which “polyreactivity (PSR sort gate)” value does the source give for “QVQLVESGGGLVQAGGSLRLSCAASGSTFYHYAMGWYRQAPGKERELVAAISTGGSTYYADSVKGRFTISRDNAKNTVYLQMNSLKPEDTAVEYCNARYIGGYGYWGQGTQVTVSS” here?
Answer: low polyreactivity

Question: For “QVQLVESGGGLVQAGGSLRLSCAASGSTFYHYAMGWYRQAPGKERELVAAISTSGGRTYYADSVKGRFTISRDNAKNTVYLQMNSLKPEDTAVYYCAARSYRYYYGFDYWGQGTQVTVSS”, which “polyreactivity (PSR sort gate)” value is on record?
Answer: low polyreactivity

Question: With “QVQLVESGGGLVQAGGSLRLSCAASGSTFYIYDMGWYRQAPGKEREFVAAIDFSGSSTYADSVKGRFTISRDNAKNTVYFQINSLKPDDSAVFDCAAYQIYQYDGPYVYWGQGTQVTVSS” as the sequence, how does the “polyreactivity (PSR sort gate)” value read?
Answer: low polyreactivity

Question: With “QVQLVESGGGLVQAGGSLRLSCAASGSTFYKNAMGWYRPAPGKERELVAAISGSGGRTYYADSVKGRFTISRDNAKNTVYLQMNSLKPEDTAVYYCNAARAYYSLYYGLDYWGQGTQVTVSS” as the sequence, how does the “polyreactivity (PSR sort gate)” value read?
Answer: high polyreactivity

Question: For “QVQLVESGGGLVQAGGSLRLSCAASGSTFYKNAMGWYRQAPGKEREFVAAIRSGDSTNYADSVKGRFTISRDNAKNTVYIQMNSLKPEDSAVYYCARDRPGDYAGYDYWGQGSQVTVSS”, which “polyreactivity (PSR sort gate)” value is on record?
Answer: low polyreactivity

Question: Which “polyreactivity (PSR sort gate)” value does the source give for “QVQLVESGGGLVQAGGSLRLSCAASGSTFYKNAMGWYRQAPGKERELVAAITRSGGSTYYADSVKGRFTISRDNAKNTVYLQMNSLKPEDTAVYYCAYYPYGYDYWGQGTQVTVSS” here?
Answer: high polyreactivity

Question: With “QVQLVESGGGLVQAGGSLRLSCAASGSTFYKYAMGGYRQAPGKERELVASITSGGRTYYADSEKGRFTISRDNAKNTVYLQMNSLKPDDTAVYYCAKRYGRLTRYDYWGQGTQVTVSS” as the sequence, how does the “polyreactivity (PSR sort gate)” value read?
Answer: high polyreactivity

Question: With “QVQLVESGGGLVQAGGSLRLSCAASGSTFYKYAMGRYREAPRKERELVASISRSGGSTSYADSVTGRFTISRDNAKNTVYLQMNSLTPEDTAVYYCAATWRQHPGSMGYWGQGTQVTVSS” as the sequence, how does the “polyreactivity (PSR sort gate)” value read?
Answer: high polyreactivity

Question: Which “polyreactivity (PSR sort gate)” value does the source give for “QVQLVESGGGLVQAGGSLRLSCAASGSTFYKYAMGWYRQAPGKERELVAVITDGGSTTYADSVKGRFTISRDNAKNTVYLQMNSLKPEDTAVYYCAADYYLRKTRFESWGQGTQVTVSS” here?
Answer: low polyreactivity

Question: For “QVQLVESGGGLVQAGGSLRLSCAASGSTFYKYAMGWYRQAPGKERELVAVITKSGGSTYYADSVKGRFTISRDNEKNTVYLQMNSLKPEDTAVYYCAAEDHYGYNSGYDYWGQGTQVTVSS”, which “polyreactivity (PSR sort gate)” value is on record?
Answer: high polyreactivity

Question: With “QVQLVESGGGLVQAGGSLRLSCAASGSTFYKYGMGRNTQAHGKERELVAAISGSGDSTYYADSVKGRFTISRDNAKNSVYLQMNSLKPEDTAVYYCNAGPWCYLHEYDYWGQGTQVTVSS” as the sequence, how does the “polyreactivity (PSR sort gate)” value read?
Answer: low polyreactivity

Question: With “QVQLVESGGGLVQAGGSLRLSCAASGSTFYKYTMGWYRQAPGKERELVAAISGSGTTTYYADSVKGRFTISRDNAKNTVYLQMNSLKPEDTAVYYCAARRFSPGSSGHGYWGQGTQVTVSS” as the sequence, how does the “polyreactivity (PSR sort gate)” value read?
Answer: high polyreactivity

Question: For “QVQLVESGGGLVQAGGSLRLSCAASGSTFYKYTMGWYRQAPGKERELVAAISGSGTTTYYADSVKGRFTISRDNAKNTVYLQMNSLNPEDTAVYYCAASLYLYNSRITVRSHYYYWGQGTQVTVSS”, which “polyreactivity (PSR sort gate)” value is on record?
Answer: high polyreactivity

Question: Which “polyreactivity (PSR sort gate)” value does the source give for “QVQLVESGGGLVQAGGSLRLSCAASGSTFYLYAKVWYRQAPGKERELVAAISWSGGDTYYADSVKGRFTISRDKAKNTVYLQMNSLKPEDTAVYYCAAEISYSSPGSPRRRDYWGQGTQVTVSS” here?
Answer: low polyreactivity

Question: Which “polyreactivity (PSR sort gate)” value does the source give for “QVQLVESGGGLVQAGGSLRLSCAASGSTFYLYAMGWYRQAPGKEREFVAAISWSGGRTYYADSVKGRFTISRDNAKNTVYLQMNSLKPEDTAVYYCAAKPLFGTRDDYWGQGTQVTVSS” here?
Answer: low polyreactivity

Question: For “QVQLVESGGGLVQAGGSLRLSCAASGSTFYLYAMGWYRQAPGKERELVAAISWTGGSTTYADSVKGRFTISRDNAKNTVYLQMNSLKPEDTAVYYCAADEGLIDGRAWYGYWGQGTQVTVSS”, which “polyreactivity (PSR sort gate)” value is on record?
Answer: low polyreactivity

Question: For “QVQLVESGGGLVQAGGSLRLSCAASGSTFYLYDMGWYRQAPGKERELVATITSGTSTTYADSVKGRFTISRDNAKNTVYLQMISLKPEDTAVYYCNVYKPPTRGGVLEYGYWGQGTQVTVSS”, which “polyreactivity (PSR sort gate)” value is on record?
Answer: low polyreactivity

Question: With “QVQLVESGGGLVQAGGSLRLSCAASGSTFYLYTMGWYRLAPGKERELVAAISVSGGSTFYADSVKGRFSISRDNAKNTVYLQKNSLKPEDTAVYYSAADGYLHAGHWRTYGYYYWGQGTQVTVSS” as the sequence, how does the “polyreactivity (PSR sort gate)” value read?
Answer: low polyreactivity

Question: With “QVQLVESGGGLVQAGGSLRLSCAASGSTFYLYTMGWYRQAPGKERELVAAINRSGGRTYYADSVKGRFTISRDNAKNTVYLQMNSLKPEDTAVYYCATDSVTRGRSRGFDYWGQGTQVTVSS” as the sequence, how does the “polyreactivity (PSR sort gate)” value read?
Answer: high polyreactivity

Question: For “QVQLVESGGGLVQAGGSLRLSCAASGSTFYNNAMGWYRQAPGKEREFVAAITLSGGRTYYADSVKGRFTISRDNAMNTVYLQMNSLKPEDTAVYYCAAKGTRRGKERNYWGQGTQVTVSS”, which “polyreactivity (PSR sort gate)” value is on record?
Answer: high polyreactivity

Question: Which “polyreactivity (PSR sort gate)” value does the source give for “QVQLVESGGGLVQAGGSLRLSCAASGSTFYNYAMGWYRPAPGNERELVAAIDTGGSTNYADSVKGRFTISRDNAKNTVYFQMNSLKPEVTALDYCNTVYLYGTHDYWGQGTQVTVSS” here?
Answer: low polyreactivity

Question: Which “polyreactivity (PSR sort gate)” value does the source give for “QVQLVESGGGLVQAGGSLRLSCAASGSTFYNYAMGWYRQAPGKEREFVAAITRSGGSTYYADSVKGRFSISRDNAKNTVYLQMNSLKPEDTAVYYCNAGGHWYYHRYRGYYWGQGTQVTVSS” here?
Answer: high polyreactivity

Question: With “QVQLVESGGGLVQAGGSLRLSCAASGSTFYNYAMGWYRQAPGKERELVAAIRNGGGTNYADSVKGRFTISRDNAKITVYLQMNSLKPEDTAVYYCNKAYGVSGPGVDYWGQGTQVTVSS” as the sequence, how does the “polyreactivity (PSR sort gate)” value read?
Answer: low polyreactivity

Question: Which “polyreactivity (PSR sort gate)” value does the source give for “QVQLVESGGGLVQAGGSLRLSCAASGSTFYNYAMGWYRQAPGKERELVAAIRNGGGTNYADSVKGRFTISRDNAKNTVYLQMNSLKPEDTAVYYFNKAYGVSGPGVDYWGQGTQVTVSS” here?
Answer: low polyreactivity

Question: Which “polyreactivity (PSR sort gate)” value does the source give for “QVQLVESGGGLVQAGGSLRLSCAASGSTFYNYVMGWYRQAPAKERELVAAITSRGGRTYYADSVKGRFTISRDNAKNTVSLQMNSLKPEDTAVYYCARDRGYQSGYDYWGQGTQVTVSS” here?
Answer: high polyreactivity

Question: With “QVQLVESGGGLVQAGGSLRLSCAASGSTFYPNAMGWYRQAPGKERELVAAITTSGGSTYYADSVKGRCTISRDNAKNTVYLQMNSLKPEDTAVYYCAAEVRDRGWEPYGPIYDYWGQGTQVTVSS” as the sequence, how does the “polyreactivity (PSR sort gate)” value read?
Answer: high polyreactivity

Question: For “QVQLVESGGGLVQAGGSLRLSCAASGSTFYPNARGWYRQAPGKERELVAAISWSGGRTYYADSEKGRFTISRDNAKNTVYLQMNSLKPEDTAVYYCYRYHRTSGRAKYDYWGQGTQVTVSS”, which “polyreactivity (PSR sort gate)” value is on record?
Answer: high polyreactivity

Question: Which “polyreactivity (PSR sort gate)” value does the source give for “QVQLVESGGGLVQAGGSLRLSCAASGSTFYPYAMGWYRQAPGKERELVAAISSRDGRTYYADSVKGRFTISRDNAKNTVYLQMNSLKPEDTAVYYCAASSFNNGHRYDYWGQGTQVTVSS” here?
Answer: high polyreactivity

Question: With “QVQLVESGGGLVQAGGSLRLSCAASGSTFYPYAMGWYRQAPGKERELVAAITYSGGSTYYADSVKGRFTISRDNAKNTVYLQMNSLKPDDTAVYYCATPYFSTPRVRGFDYWGQGTQVTVSS” as the sequence, how does the “polyreactivity (PSR sort gate)” value read?
Answer: low polyreactivity

Question: For “QVQLVESGGGLVQAGGSLRLSCAASGSTFYPYAMGWYRQAPGKERELVAGISWSGGSTYYADSVKGRFTISRDNAKNTVYLQMNSLKPEDTAVYSCAVDVYWSVIYDYWGQGTQVTVSS”, which “polyreactivity (PSR sort gate)” value is on record?
Answer: low polyreactivity

Question: Which “polyreactivity (PSR sort gate)” value does the source give for “QVQLVESGGGLVQAGGSLRLSCAASGSTFYPYAMGWYRQAPGTEREFVAAITWSGGSTYYADSVKGRFTISRDNAKNTVYLQMNSLKPDDTAVYYCNAVVATSKYTDYYWGQGTQVTVSS” here?
Answer: low polyreactivity

Question: For “QVQLVESGGGLVQAGGSLRLSCAASGSTFYPYGMGWYRQAPGNERELVAAITDSGGSTYYADSVKGRFTISRDNAKNTVYLQMNSLKPEDTAVYYCAKTYWYPWRASLWHEYDYWGQGTQVTVSS”, which “polyreactivity (PSR sort gate)” value is on record?
Answer: low polyreactivity

Question: For “QVQLVESGGGLVQAGGSLRLSCAASGSTFYQYAMGWYRQAPGKERELVAVITGSGGSTYYADSVKGRFTISRDNAKNTVYLQMNSLKPEDTAVYYCAAGARYFIYRTTSLGGNYWGQGTQVTVSS”, which “polyreactivity (PSR sort gate)” value is on record?
Answer: high polyreactivity

Question: With “QVQLVESGGGLVQAGGSLRLSCAASGSTFYRNALGWYRQAPGKERELVARISSRGGRTSYADSVKGRFTISRDNAKNTVYFQMNSLKPEDTAVYYCAADYYVNRIQRYDYWGQGTQVTVSS” as the sequence, how does the “polyreactivity (PSR sort gate)” value read?
Answer: high polyreactivity

Question: With “QVQLVESGGGLVQAGGSLRLSCAASGSTFYRNAMGAYRQAPGKDREFVAAISFRGGGTYADSVKGRCTISRDNANNTVYLQMNSLKPEDTAVYYCAADHLSYRRRYEYWGQGTQVTVSS” as the sequence, how does the “polyreactivity (PSR sort gate)” value read?
Answer: low polyreactivity

Question: For “QVQLVESGGGLVQAGGSLRLSCAASGSTFYRNAMGWYRPAPGKERELVAAISQRGGRTYYADSVKGRFTISRDNAKNTVYLQMNSLKPEDTAVYYCNKFRGINHLYDMNYWGQGTQVTVSS”, which “polyreactivity (PSR sort gate)” value is on record?
Answer: high polyreactivity

Question: With “QVQLVESGGGLVQAGGSLRLSCAASGSTFYRNAMGWYRQAPGKEREFVADITLGGGSTYYADSVKGRFTISRDNAKNTVYLQMNSLTPEDTAVYYCAVVYWQLNYDYWGQGTQVTVSS” as the sequence, how does the “polyreactivity (PSR sort gate)” value read?
Answer: low polyreactivity
